Holding throughout (conditions): remark: other sources report otherwise
Experiment [1] concerns the target T1, Human USP25 (1-1055) (human), Q9UHP3.
T1 chain: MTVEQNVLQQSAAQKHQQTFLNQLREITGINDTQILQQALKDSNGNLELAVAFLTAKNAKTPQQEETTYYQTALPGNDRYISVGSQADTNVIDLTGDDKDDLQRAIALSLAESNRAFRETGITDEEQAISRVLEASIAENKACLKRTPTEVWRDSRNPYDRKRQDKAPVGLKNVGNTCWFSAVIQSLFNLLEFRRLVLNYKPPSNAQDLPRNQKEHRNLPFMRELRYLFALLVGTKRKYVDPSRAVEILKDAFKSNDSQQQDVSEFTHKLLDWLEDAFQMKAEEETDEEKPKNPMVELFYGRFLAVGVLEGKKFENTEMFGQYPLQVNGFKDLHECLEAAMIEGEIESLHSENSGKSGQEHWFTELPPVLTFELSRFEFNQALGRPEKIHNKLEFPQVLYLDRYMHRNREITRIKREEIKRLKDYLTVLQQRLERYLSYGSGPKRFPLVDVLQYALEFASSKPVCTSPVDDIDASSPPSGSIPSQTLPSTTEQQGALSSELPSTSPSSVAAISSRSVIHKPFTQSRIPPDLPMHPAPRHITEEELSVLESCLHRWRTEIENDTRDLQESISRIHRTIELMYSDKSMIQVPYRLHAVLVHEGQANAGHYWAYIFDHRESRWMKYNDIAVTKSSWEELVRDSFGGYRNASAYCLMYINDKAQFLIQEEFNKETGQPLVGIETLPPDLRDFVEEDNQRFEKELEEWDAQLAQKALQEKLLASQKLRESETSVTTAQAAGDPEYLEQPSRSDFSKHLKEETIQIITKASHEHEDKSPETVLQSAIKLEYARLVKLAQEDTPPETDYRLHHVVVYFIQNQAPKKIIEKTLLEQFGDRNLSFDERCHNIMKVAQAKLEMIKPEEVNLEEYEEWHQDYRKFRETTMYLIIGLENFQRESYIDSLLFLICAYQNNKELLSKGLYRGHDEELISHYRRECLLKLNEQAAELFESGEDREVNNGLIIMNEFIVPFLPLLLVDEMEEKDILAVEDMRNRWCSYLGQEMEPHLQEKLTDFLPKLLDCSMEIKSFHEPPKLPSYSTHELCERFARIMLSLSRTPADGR
Description: SEC-MALS; five-fold dilution series (1 mg/mL, 0.2 mg/mL, 0.04 mg/mL sample concentration). For orientation: Size exclusion chromatography separates by hydrodynamic size, large species first.

The target is the same in experiment [2]. Description: not stated; oligomeric states of purified orthologs and of full-length proteins, Figures S7A, S7B and S3J.
Experiment [3] has the same target. Nature of the experiment: SEC + native gel or EMSA; recombinant full-length USP25 on HiLoad 16/600 Superdex 200 pg in buffer E immediately before native PAGE, Ponceau staining. Background: In EMSA bound probe runs differently from free probe, usually more slowly.
The target of experiment [4] is T2, endogenous USP25 (human (endogenous in HEK293)), Q9UHP3.
T2 chain: T1 chain
Nature of the experiment: native gel or EMSA; native PAGE of lysate of untreated HEK293 cells, immunoblotting for the endogenous protein; recombinant USP25 tetramer and dimer fractions as size standard.

Values joined by “and” are separate entries in the source; they are usually repeats but may differ in a detail not shown here. Equal values may be shown once.

B1: Human USP25 (1-1055), Q9UHP3 1-1055 (enzyme)
chain: T1 chain
As a reminder, the stoichiometry N is the number of molecules, sites or subunits per partner or assembly. Consider B1, for which the stoichiometry N in experiment [1] was 4 and 2; in experiment [2], 2 and 4; in experiment [3], 4 and 2.

B2: endogenous USP25, Q9UHP3 1-1055 (enzyme)
chain: T1 chain
For the molecule B2, the stoichiometry N in experiment [4] is 2 and 4.

(Values after paper PMC6509359.)
